Data taken from patent US20250250357A1 (NANJING ZAIMING PHARMACEUTICAL, published 2025).

How the values were obtained:
[1] = molecular target: T1, human MSLN-FL-his protein (human, UniProt Q13421 296-580); test: competitive ELISA; coated 2ug/ml F4-127.10
T1 construct: made in HEK293E cells, purified on nickel column; also called hMSLN-FL-his; human MSLN full-length protein; not shown: His tag

[2] = molecular target: T1, human MSLN-FL-his protein; test: competitive ELISA; coated 2ug/ml Tab108 (R3)
Procedure: (§1) In order to identify antigen-binding sites of antibodies, MSLN chimeric antibodies were grouped using competitive ELISA.
(§2) The chimeric antibodies were diluted to 2 μg/mL with PBS and allowed to coat 96-well high-adsorption ELISA plates at 50 μL/well. After the plates were coated at 4° C. overnight, 250 μL of a blocking buffer (PBS containing 2% (w/w) BSA) was added for two hours of blocking at room temperature. 40 μg/mL of the antibodies to be tested were added, and then the human MSLN-FL-His protein with an EC₈₀ concentration corresponding to each of the antibodies to be tested was added for incubation for 2 h. The plates were washed 5 times with PBS, an HRP-labeled anti-His secondary antibody (purchased from Genescript, Cat. No. A00612) was then added for incubation for 1 h, and the plates were washed 5 times again. A TMB substrate was added at 50 μL/well, and after 10 minutes of incubation at room temperature, a stop solution (1.0 M HCl) was added at 50 μL/well. OD₄₅₀ nm values were read using an ELISA plate reader (Insight, purchased from PerkinElmer), and the competition rate between the antibodies was calculated according to the OD₄₅₀ nm values using a formula.

[3] = molecular target: T1, human MSLN-FL-his protein; test: competitive ELISA; coated 2ug/ml F3.23.1
Procedure: as §1, §2

[4] = molecular target: T1, human MSLN-FL-his protein; test: competitive ELISA; coated 2ug/ml F3.45.21
Procedure: as §1, §2

[5] = molecular target: T1, human MSLN-FL-his protein; test: competitive ELISA; coated 2ug/ml Tab142 (R1)
Procedure: as §1, §2

[6] = molecular target: T1, human MSLN-FL-his protein; test: SPR (Biacore), antibody captured on Protein A chip;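 further: measured at 25 °C, analyte injected 240 s in five twofold dilutions from 200 nM, dissociation up to 600 s, double-referenced, fitted with Langmuir 1:1 model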
[7] = molecular target: T1, human MSLN-FL-his protein; test: competitive ELISA; coated 2ug/ml F3.74.20
Procedure: as §1, §2

[8] = molecular target: T1, human MSLN-FL-his protein; test: competitive ELISA; coated 2ug/ml F3.80.22
Procedure: as §1, §2

[9] = molecular target: T1, human MSLN-FL-his protein; test: competitive ELISA; coated 2ug/ml F3.51.8
Procedure: as §1, §2

T1 sequence (Q13421 other isoform, or with tags, fused parts or gaps): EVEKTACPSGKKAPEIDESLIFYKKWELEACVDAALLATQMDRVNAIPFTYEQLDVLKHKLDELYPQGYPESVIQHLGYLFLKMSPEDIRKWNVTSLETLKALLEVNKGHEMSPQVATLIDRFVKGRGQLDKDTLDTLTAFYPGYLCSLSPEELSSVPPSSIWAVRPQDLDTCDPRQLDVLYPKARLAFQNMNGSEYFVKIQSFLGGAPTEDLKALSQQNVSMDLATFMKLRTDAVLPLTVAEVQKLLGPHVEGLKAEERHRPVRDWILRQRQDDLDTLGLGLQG

Binder	competition rate [1]	competition rate [2]	competition rate [3]	competition rate [4]	competition rate [5]	Kd [6]	koff [6]	competition rate [7]	competition rate [8]	competition rate [9]	kon [6]
S009-F3.45.21 (antibody, human IgG1, kappa, V domains shown, human-murine chimeric antibody, human IgG1/kappa constant regions) VH: DVQLQESGPGLVKPSQSLSLTCSVTGDSITSGYYWNWIRQFPGNKLEWMGFIRFDGTNNYNPSLKNRISITRDTSKNQFFLKLNSVTTEDTATYYCAREGSYAPAWFAYWGQGTLVTVSA VL: QIVLTQSPAIMSASPGEKVTMTCSASSSLSYMYWYQQKPGSSPRLLIYDTSNLASGVPVRFSGSGSGTSYSLTISRMEAEDAATYYCQQWSSYPPTFGGGTKLEIKR	37%	32%	99%	92%	-38%	1.5 nM	0.00083 s⁻¹	96%	-26%	96%	552000 M⁻¹ s⁻¹
S009-F3.51.8 (antibody, human IgG1, kappa, V domains shown, human-murine chimeric antibody, human IgG1/kappa constant regions) VH: QVQLQQSGAELVRPGASVTLSCKASGYTFTDYEMHWVKQTPVHGLEWIGGFDPETGGTAHNQKFKGKAILTADKSSSTAYMELRSLTSEDSAVYYCSNYGSIWGDCWGQGTSVTVSS VL: not shown	78%	46%	101%	98%	-34%	142 nM	0.00035 s⁻¹	101%	-17%	102%	2470 M⁻¹ s⁻¹
S009-F3.74.20 (antibody, human IgG1, kappa, V domains shown, human-murine chimeric antibody, human IgG1/kappa constant regions) VH: RVQLQQSGAELVRPGASVTLSCKASGYTFTDSEMHWVKQTPVHGLEWIGAIDPEIDGTAYNQNFRDKAILTADKSSSTAYMELRSLTSEDSAVYYCTTYFGSGYGYFDVWGTGTTVTVSS VL: DVVMTQTPLSLSVSLGDQASISCRSSQSLVYSNGNTYLHWFLQKPGQSPKLLIYKVSNRFSGVPDRFSGSGSGTDFTLKINRVEAEDLGVYFCSQSTHIPFTFGAGTKLELKR	33%	34%	100%	94%	-28%	4.92 nM	5.04e-05 s⁻¹	98%	-15%	96%	10300 M⁻¹ s⁻¹

Second part, the binder after the results:

competition rate [1]	competition rate [2]	competition rate [3]	competition rate [4]	competition rate [5]	Kd [6]	koff [6]	competition rate [7]	competition rate [8]	competition rate [9]	kon [6]	Binder
31%	35%	95%	89%	-25%	689 nM	0.000703 s⁻¹	93%	-36%	94%		S009-F3.23.1 (antibody, human IgG1, kappa, V domains shown, human-murine chimeric antibody, human IgG1/kappa constant regions) VH: QVQLQQSGADLVRPGASVTLSCKASGYTFTDYEMHWVKQTPVHGLEWIGAIDPETGDTVYNQNFKGKAILTADKSSSTAYMELRSLTSEDSAVYYCTRYGYDWGWGQGTTLTVSS VL: not shown
16%	-37%	88%	84%	-27%	171 nM	0.000433 s⁻¹	91%	-5%	87%	2530 M⁻¹ s⁻¹	S009-F4-127.10 (antibody, human IgG1, kappa, V domains shown, human-murine chimeric antibody, human IgG1/kappa constant regions) VH: EVQLQQSGPVLVKPGASVKMSCKASGYTFTDYYMNWVKQSHGKSPEWIGVINPYNDVISYNQKFKGKATLTVDKSSSTAYMELNSLTSEDSAVYYCANYGSSYYAMDYWGQGTSVTVSS VL: DVVMTQTPLSLSVSLGDQASISCRSSQSLVHSNGNTYLQWSLQKPGQSPNLLIYKVSNRFSGVPDRFSGSGSGTDFTLKISRVEAEDLGVYFCSQTTHVPFTFGGGTKLEIRR
-22%	35%	-109%	-67%	81%	151 nM	0.000332 s⁻¹	-12%	63%	43%	2200 M⁻¹ s⁻¹	S009-F3.80.22 (antibody, human IgG1, kappa, V domains shown, human-murine chimeric antibody, human IgG1/kappa constant regions) VH: QVQLQQSGAELVRPGASVTLSCKASGYTFTDYEIHWVKQTPVHGLEWIGAFDPEIGGSAYNQKFKDRATLTADKSSSTAYMELHSLTAEDSAVYYCTDYYGSSSGYFDVWGTGTTVTVSS VL: DVVMTQTPLSLPVSLGDQASISCRSSQSLEHNNGNTYLHWFLHKPGQSPKLLIYKVSNRFSGVPDRFSGSGSGTDFTLKISRVEAEDLGVYFCSQSTHVPFTFGSGTKLEIKR
